# Reference: article PMC3235114, “Characterization of the Partitioning System of Myxococcus Plasmid pMF1”
# T1: ParB (ORF23, pMF1.23 product), His-tagged (Myxococcus fulvus 124B02 plasmid pMF1, UniProt B0YR32 12-86)
# T1 sequence: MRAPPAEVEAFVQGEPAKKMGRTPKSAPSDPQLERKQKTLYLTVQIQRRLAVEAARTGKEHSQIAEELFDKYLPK
# T2: ParB (ORF23, pMF1.23 product), His-tag free (Myxococcus fulvus 124B02 plasmid pMF1, UniProt B0YR32 12-86)
# T2 sequence: T1 sequence
# T3: ParC (ORF21, pMF1.21 product) (Myxococcus fulvus 124B02 plasmid pMF1, UniProt B0YR30 1-87)
# T3 sequence: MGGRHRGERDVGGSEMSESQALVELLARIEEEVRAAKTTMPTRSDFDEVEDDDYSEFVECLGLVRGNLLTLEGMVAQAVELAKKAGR
# B1: ItD (dsDNA)
# DNA 1: AGAAGTCCAGACATCTGGACATTCAGAAGTCTAGACATCTGGATGTCCAGATGGGG
# DNA 2: CCCCATCTGGACATCCAGATGTCTAGACTTCTGAATGTCCAGATGTCTGGACTTCT
# B2: ItB (dsDNA)
# DNA 1: GTGATGTCTAGAGGTCTGGATGTCTAGATGTCTAGATGTCT
# DNA 2: AGACATCTAGACATCTAGACATCCAGACCTCTAGACATCAC
# B3: ItF (dsDNA)
# DNA 1: AGAGGTCTAGGTGTCTGGAAGTCTGGAGGTCTGGATGTC
# DNA 2: GACATCCAGACCTCCAGACTTCCAGACACCTAGACCTCT
# B4: ItA (dsDNA)
# DNA 1: GGAAGTCTGGAAGTCTAGATGTCTAGATGTTTGAATGTTTGGAGTGGG
# DNA 2: CCCACTCCAAACATTCAAACATCTAGACATCTAGACTTCCAGACTTCC
# B5: non-iteron fragment (dsDNA)
# DNA 1: CGGGCGTCACAGGGGGGAACGCGATGTTGGAGGGTCGGAAATGAGCGAGTCG
# DNA 2: CGACTCGCTCATTTCCGACCCTCCAACATCGCGTTCCCCCCTGTGACGCCCG
# B6: ItE (dsDNA)
# DNA 1: AAGTGTCTAGATGTCTAGATGTCT
# DNA 2: AGACATCTAGACATCTAGACACTT
# B7: ItC (dsDNA)
# DNA 1: AGACATCTGGAAGTCTGGATGTC
# DNA 2: GACATCCAGACTTCCAGATGTCT
# Tests used:
# [1] = target: T1, ParB (ORF23, pMF1.23 product), …; experiment: EMSA; EMSA: 12 mM HEPES, 4 mM Tris-HCl pH 8.0, 60 mM KCl, 5 mM MgCl2, 0.1 mM EDTA, 1 ug poly(dI-dC), 2% glycerol, 12 pmol probe, 30 min 30 C; footprint: HEMG (50 mM EDTA as printed, 50 mM KCl, 12.5 mM HEPES pH 7.6, 6 mM MgCl2, 5% glycerol), 20 mM HEPES pH 7.6, 5 ug poly(dI-dC), 30 min 30 C; settings: protein: recombinant; tags: N-terminal His6 (pET-15b); label: 3' biotin; blunt
# [2] = target: T1, ParB (ORF23, pMF1.23 product), …; experiment: EMSA; unlabeled ItB competes; EMSA: 12 mM HEPES, 4 mM Tris-HCl pH 8.0, 60 mM KCl, 5 mM MgCl2, 0.1 mM EDTA, 1 ug poly(dI-dC), 2% glycerol, 12 pmol probe, 30 min 30 C; footprint: HEMG (50 mM EDTA as printed, 50 mM KCl, 12.5 mM HEPES pH 7.6, 6 mM MgCl2, 5% glycerol), 20 mM HEPES pH 7.6, 5 ug poly(dI-dC), 30 min 30 C; settings: protein: recombinant; tags: N-terminal His6 (pET-15b); label: 3' biotin; blunt
# [3] = target: T2, ParB (ORF23, pMF1.23 product), His-tag …; experiment: EMSA; similar affinity to His-tagged protein; EMSA: 12 mM HEPES, 4 mM Tris-HCl pH 8.0, 60 mM KCl, 5 mM MgCl2, 0.1 mM EDTA, 1 ug poly(dI-dC), 2% glycerol, 12 pmol probe, 30 min 30 C; footprint: HEMG (50 mM EDTA as printed, 50 mM KCl, 12.5 mM HEPES pH 7.6, 6 mM MgCl2, 5% glycerol), 20 mM HEPES pH 7.6, 5 ug poly(dI-dC), 30 min 30 C; settings: protein: recombinant; tags: none; label: 3' biotin; blunt
# [4] = target: T3, ParC (ORF21, pMF1.21 product); experiment: EMSA; data not shown; EMSA: 12 mM HEPES, 4 mM Tris-HCl pH 8.0, 60 mM KCl, 5 mM MgCl2, 0.1 mM EDTA, 1 ug poly(dI-dC), 2% glycerol, 12 pmol probe, 30 min 30 C; footprint: HEMG (50 mM EDTA as printed, 50 mM KCl, 12.5 mM HEPES pH 7.6, 6 mM MgCl2, 5% glycerol), 20 mM HEPES pH 7.6, 5 ug poly(dI-dC), 30 min 30 C; settings: protein: recombinant, tags: His6 (pET-15b), label: 3' biotin
# [5] = target: T1, ParB (ORF23, pMF1.23 product), …; experiment: EMSA; poly(dI-dC), 5 mM MgCl2; unlabeled ItA competes; EMSA: 12 mM HEPES, 4 mM Tris-HCl pH 8.0, 60 mM KCl, 5 mM MgCl2, 0.1 mM EDTA, 1 ug poly(dI-dC), 2% glycerol, 12 pmol probe, 30 min 30 C; footprint: HEMG (50 mM EDTA as printed, 50 mM KCl, 12.5 mM HEPES pH 7.6, 6 mM MgCl2, 5% glycerol), 20 mM HEPES pH 7.6, 5 ug poly(dI-dC), 30 min 30 C; settings: protein: recombinant; tags: N-terminal His6 (pET-15b); label: 3' biotin; blunt
# [6] = target: T1, ParB (ORF23, pMF1.23 product), …; experiment: EMSA; up to 1000 ng protein; EMSA: 12 mM HEPES, 4 mM Tris-HCl pH 8.0, 60 mM KCl, 5 mM MgCl2, 0.1 mM EDTA, 1 ug poly(dI-dC), 2% glycerol, 12 pmol probe, 30 min 30 C; footprint: HEMG (50 mM EDTA as printed, 50 mM KCl, 12.5 mM HEPES pH 7.6, 6 mM MgCl2, 5% glycerol), 20 mM HEPES pH 7.6, 5 ug poly(dI-dC), 30 min 30 C; settings: protein: recombinant; tags: N-terminal His6 (pET-15b); label: 3' biotin
binder,measurement,setting,value
B1,binding result,[1],binds
B2,binding result,[2],binds
B3,binding result,[1],binds
B4,binding result,[3],binds
same,binding result,[4]; blunt,no binding
same,binding result,[5],binds
B5,binding result,[6],no binding
same,binding result,[4],no binding
B6,binding result,[1],binds
B7,binding result,[1],binds
